Source: the supplement of paper PMC9732359
± gives the uncertainty stated by the source.

Assay: protein stability index of a GFP-peptide fusion (yeast GPS) (PSI 1-4); higher = more stable; sorted into four equal gates, so the index is relative within each strain
Procedure, shortened: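 Tiled 17-residue yeast protein peptides were fused downstream of GFP in a plasmid that also expresses Cherry, and the pooled library was carried in yeast. Mid-log cultures in leucine-free medium were sorted into four equal gates by GFP/Cherry fluorescence ratio, and plasmids from each gate were PCR-amplified and Illumina-sequenced, with reads assigned to strains by barcodes. The protein stability index for each peptide was each gate's read frequency times its gate number, summed.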

| Sequence | protein stability index (doa10∆) | protein stability index (pdr5∆) | protein stability index (san1∆) | protein stability index (ubr1∆) |
| --- | --- | --- | --- | --- |
| DKVTSQAVNNLIKTLST [RPP1] | 2.53 ± 0.059 | 2.89 ± 0.078 | 2.47 ± 0.074 | 2.62 ± 0.048 |
| LKIYYKEEFSSDESIER [RRI2] |  | 2.43 ± 0.15 | 2 ± 0.23 | 2.9 ± 0.11 |
| YDGDTVTFSPTGRLFQV [PRE5] | 2.96 ± 0.089 | 2.98 ± 0.12 | 2.94 ± 0.14 | 3.08 ± 0.061 |
| NSSSMEEVMRIALMGQD [ESC2] | 2.69 ± 0.068 | 2.67 ± 0.075 | 2.19 ± 0.12 | 2.62 ± 0.049 |
| FIYGMSAKDHPKVKEIK [PRP8] | 2.53 ± 0.25 | 3.12 ± 0.19 | 2.72 ± 0.23 | 3.33 ± 0.16 |
| ATPIPEEVQQAQTEIKL [RPS5] | 2.82 ± 0.11 | 2.89 ± 0.1 | 2.97 ± 0.096 | 3.05 ± 0.11 |
| VPKHMLDKLDEILYYQI [AAR2] | 2.91 ± 0.069 | 3 ± 0.099 | 2.95 ± 0.076 | 3.17 ± 0.063 |
| FNVPVVSKQLGNGLVDE [YAR002W/NUP60] |  | 3.66 ± 0.22 | 3.26 ± 0.14 | 2.99 ± 0.14 |
| RDLKPSNLEKLLFINSS [YML103C/NUP188] | 1.93 ± 0.11 | 1.91 ± 0.093 | 1.66 ± 0.13 | 1.69 ± 0.1 |
| SSTIDAPAFHTSGKVEL [SRB8] | 2.9 ± 0.28 |  | 2.94 ± 0.18 | 2.87 ± 0.082 |
| ERHQKQLNEKLVGRLRK [YCS4] | 3.19 ± 0.12 | 3.18 ± 0.11 | 3.02 ± 0.06 | 3 ± 0.065 |
| SNDLDKFFQKKIHLYEK [YGL172W/NUP49] | 2.21 ± 0.057 | 2.22 ± 0.067 | 1.96 ± 0.061 | 2.32 ± 0.052 |
| IPISSETTIDDLPISST [SMC1] | 2.68 ± 0.047 | 2.72 ± 0.061 | 2.68 ± 0.047 | 2.99 ± 0.041 |
| TKAQQKTAEQIAAERAA [RPL7B] | 2.81 ± 0.17 |  | 3.07 ± 0.13 |  |
| VTRLFFICSIIQTVVIS [YML031W/NDC1] | 1.23 ± 0.051 | 1.28 ± 0.046 | 1.46 ± 0.076 | 1.75 ± 0.05 |
| QTLLANSDHAKFTIEPG [SNF2] | 2.35 ± 0.059 | 2.33 ± 0.065 | 2.41 ± 0.1 | 2.37 ± 0.063 |
| RYLAVTLQDIGFYQIKK [YMR129W/POM152] | 2.53 ± 0.046 | 2.65 ± 0.043 | 2.73 ± 0.068 | 2.62 ± 0.043 |
| DLLRSQLTSLEKDCSLR [YIL149C/MLP2] | 2.94 ± 0.061 | 3.05 ± 0.063 | 2.33 ± 0.077 | 3.03 ± 0.042 |
| IADQDMEDEDMVDVIID [ESC2] | 3.41 ± 0.16 | 3.3 ± 0.079 | 3.15 ± 0.088 | 3.15 ± 0.11 |
| MAPYLPGSRASSRFIKG [RPN2] | 2.44 ± 0.059 | 2.66 ± 0.064 | 2.45 ± 0.063 | 2.53 ± 0.044 |
| FNEKFPSLIQEEEEDTT [NUT1] | 2.78 ± 0.086 | 3.15 ± 0.093 | 3.06 ± 0.074 | 3.06 ± 0.078 |
| GSGLLKLSEIILNINNS [SWI1] | 2.69 ± 0.089 | 2.69 ± 0.081 | 2.4 ± 0.098 | 2.85 ± 0.081 |
| LWDQDIAIAGTGQIEGL [COR1] | 3.12 ± 0.089 | 3.37 ± 0.077 | 3.05 ± 0.055 | 2.98 ± 0.05 |
| NSSEIQSAIRPAGQATQ [RPL4A] | 2.63 ± 0.085 | 2.85 ± 0.094 | 2.77 ± 0.039 | 2.57 ± 0.062 |
| LTCLPVPPPPVRPSISF [RPO21] | 2.28 ± 0.03 | 2.44 ± 0.031 | 2.36 ± 0.033 | 2.33 ± 0.026 |
| ISICMILCGIQEYLNPV [YDL116W/NUP84] | 1.97 ± 0.1 | 1.61 ± 0.11 |  | 1.87 ± 0.14 |
| LDKQIEELVEAIVLPMK [RPT5] | 2.97 ± 0.15 | 3.02 ± 0.15 | 3.45 ± 0.12 | 3.43 ± 0.15 |
